Columns and labels:
[1] = molecular target: human IL2Rγ (endogenously expressed on cells) (human) (UniProt P31785); experiment: cell-based or functional assay
[2] = molecular target: Human IL2Rγ extracellular domain expressed with a C-terminal mouse IgG2a Fc tag (human); experiment: SPR Biacore 4000, anti-hFc-captured mAb, 37 C
[3] = molecular target: Human IL2Rγ extracellular domain expressed with a C-terminal mouse IgG2a Fc tag (human); experiment: SPR Biacore 4000, anti-hFc-captured mAb, 25 C

Sequence of Human IL2Rγ extracellular domain expressed with a C-terminal mouse IgG2a Fc tag (human) (chain, as listed by the source limits assumed): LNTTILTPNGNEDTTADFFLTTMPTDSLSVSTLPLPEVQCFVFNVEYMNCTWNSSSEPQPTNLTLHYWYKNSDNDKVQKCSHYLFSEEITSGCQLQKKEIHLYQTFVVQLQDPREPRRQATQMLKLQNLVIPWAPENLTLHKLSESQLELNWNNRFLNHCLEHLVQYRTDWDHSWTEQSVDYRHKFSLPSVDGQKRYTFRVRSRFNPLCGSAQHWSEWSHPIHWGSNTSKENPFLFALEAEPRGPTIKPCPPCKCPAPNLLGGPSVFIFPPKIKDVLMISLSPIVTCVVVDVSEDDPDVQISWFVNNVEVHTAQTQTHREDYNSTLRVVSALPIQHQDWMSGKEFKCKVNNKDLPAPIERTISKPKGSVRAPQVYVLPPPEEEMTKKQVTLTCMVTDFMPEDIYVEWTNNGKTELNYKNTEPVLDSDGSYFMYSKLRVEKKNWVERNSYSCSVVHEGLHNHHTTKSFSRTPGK
Sequence of human IL2Rγ (endogenously expressed on cells) (human) (P31785 23-369): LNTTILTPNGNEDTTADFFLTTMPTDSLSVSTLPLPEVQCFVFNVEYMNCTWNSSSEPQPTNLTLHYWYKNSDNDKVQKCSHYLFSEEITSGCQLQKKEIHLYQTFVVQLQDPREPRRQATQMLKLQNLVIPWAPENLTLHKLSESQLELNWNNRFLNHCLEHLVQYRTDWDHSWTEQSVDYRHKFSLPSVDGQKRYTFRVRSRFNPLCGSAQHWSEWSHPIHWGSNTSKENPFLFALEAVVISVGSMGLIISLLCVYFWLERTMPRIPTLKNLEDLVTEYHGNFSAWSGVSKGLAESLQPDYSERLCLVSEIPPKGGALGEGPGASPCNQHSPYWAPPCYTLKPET

Row | Binder | EC50; IL-7 dose response; NK92/hIL7R/STAT3-luc [1] [nM] | 50 nM Ag Bound [2] [RU] | 50 nM Ag Bound [3] [RU]
1 | human IL-7 (ligand, UniProt P13232 26-177, looked up) DCDIEGKDGKQYESVLMVSIDQLLDSMKEIGSNCLNNEFNFFKRHICDANKEGMFLFRAARKLRQFLKMNSTGDFDLHLLKVSEGTTILLNCTGQVKGRKPAALGEAQPTKSLEENKSLKEQKKLNDLCFLKRLLQEIKTCWNKILMGTKEH | 0.039 |  | 
2 | H4H12899P (antibody, human IgG4 S228P, kappa, V domains shown) VH: QVQLVESGGDLVKPGGSLRLSCATSGFTFSDFYMTWIRQAPGKGLEWISYISNSGSIVKYADSVKGRFTISRDNAKNSLYLQMNSLRAEDTAIYYCARFYGDRWGQGTLVTVSS VL: DIQLTQSPSFLSASVGDRVTITCWASQGISTFLAWYQQKPGKAPKLLIYAASTLQSGVPSRFSGSGSGTDFTLTISSLQPEDFATYHCQQLNNYPWTFGQGTKVEIKR |  | 2 | 1
3 | H4H12900P (antibody, human IgG4 S228P, kappa, V domains shown) VH: QVQLVESGGGLVKPGGSLRLSCEASGFTFNDFYMTWIRQAPGKGLEWIAYISKSGDKMRYADSVKGRFSTSRDNAKNSLSLQMNSLRAEDTAVYYCARFYGDIWGQGTLVTVSS VL: DIQLTQSPSFLSASVGDRVTITCWASQDISSFLVWYQQKPGKAPNLLIYAASALQSGVPSRFSGSGSGTEFTLTISSLQPEDFASYYCEQLNNYPWTFGQGTKVEIKR |  | 4 | 4

Source: patent publication US20200247894A1
